Tests used:
Format in all cases: cell-based, Human
[1] = system: p27^KIP1; assay: p27^KIP1 expression by flow cytometry in U937 cells; conditions: U937, 170 nM, 72 hours
Experimental: (§1) Following incubations in the absence or presence of ONCONASE®, the cells were washed with phosphate-buffered saline (PBS) and fixed in suspension in either ice-cold 80% ethanol or absolute methanol for up to 24 h. After fixation, the cells were washed twice with PBS and then suspended in 1 ml of 0.25% Triton X-100 (Sigma, St. Louis, Mo., USA) in PBS on ice for 5 min. The cells were then centrifuged (300 g, 5 min), the cell pellet suspended 100 μl PBS containing 0.5 μg of the anti-cyclin (or anti-CKI) mAb and 1% bovine serum albumin (BSA; Sigma), and incubated for 2 h at room temperature. […]
(§2) Cellular fluorescence was measured with the ELITE ESP flow cytometer/cell sorter (Coulter, Miami, Fla., USA) using either argon ion laser (emission at 488 nm) alone or combined with helium-cadmium laser (emitting UV light). In the first case, fluorescence signals were collected using the standard configuration of the flow cytometer (green fluorescence, representing directly or indirectly FITC-labeled antibodies; red fluorescence representing CYCHROME® tagged anti-pRB^T mAb). In the second case, DNA content was analyzed based on DAPI fluorescence (blue emission) excited by UV light, while the anti-pRB^P− mAb (FITC) and anti-pRB^T (Cy-Chrome®) related emission was excited with blue light laser.

[2] = system: cyclin D3; assay: Cyclin D3 expression by multiparameter flow cytometry in U937 cells; conditions: U937, 170 nM
Experimental: Anti-cyclin D3 mAb immunofluorescence in combination with DNA content was measured by multiparameter flow cytometry (a). […] There were 48%, 38% and 14% of cells in G1, S, and G2/M in Exp culture compared with 64%, 24% and 13% cells in G1, S, and G2/M, respectively, in Onc culture. The scattergrams represent bivariate distributions of the cells with respect to their cyclin D3 vs. DNA content associated fluorescence intensities. The upper level of the isotype-matched control (mean fluorescence+3 standard deviations) is marked in the Exp panel with a dashed line. The bar plots represent the mean FITC (anti-cyclin D3 mAb) fluorescence values (arbitrary units) of the cells in different phases of the cycle (gated based on differences in DNA content as shown in the Exp panel), after subtraction of the background fluorescence, i.e., mean fluorescence of the same cells but stained with isotype-matched control IgG antibody. […]
Cellular fluorescence was measured with the ELITE ESP flow cytometer/cell sorter (Coulter, Miami, Fla., USA) using either argon ion laser (emission at 488 nm) alone or combined with helium-cadmium laser (emitting UV light). […] In the second case, DNA content was analyzed based on DAPI fluorescence (blue emission) excited by UV light, while the anti-pRB^P− mAb (FITC) and anti-pRB^T (Cy-Chrome®) related emission was excited with blue light laser.

[3] = system: cyclin D3; assay: Western blot of cyclin D3 in U937 cells; conditions: U937, 48 h
Experimental: Anti-cyclin D3 mAb immunofluorescence in combination with DNA content was measured by multiparameter flow cytometry (a). The cells were growing either in the absence (Exp, exponential growth) or in the presence of 170 nM ONCONASE® for 48 hours (Onc). There were 48%, 38% and 14% of cells in G1, S, and G2/M in Exp culture compared with 64%, 24% and 13% cells in G1, S, and G2/M, respectively, in Onc culture. The scattergrams represent bivariate distributions of the cells with respect to their cyclin D3 vs. DNA content associated fluorescence intensities. The upper level of the isotype-matched control (mean fluorescence+3 standard deviations) is marked in the Exp panel with a dashed line. The bar plots represent the mean FITC (anti-cyclin D3 mAb) fluorescence values (arbitrary units) of the cells in different phases of the cycle (gated based on differences in DNA content as shown in the Exp panel), after subtraction of the background fluorescence, i.e., mean fluorescence of the same cells but stained with isotype-matched control IgG antibody. Western blots (b) show expression of cyclin D3 in control culture and in the culture treated with Onconase 48 h;
To reveal specificity of the antibodies that were used, a standard immunoblotting procedure was used on cellular lysates.

[4] = system: U937 cells; assay: Growth and viability of U937 cells, trypan blue exclusion; conditions: U937, 170 nM (20 μg/ml)
Description: FIG. […] The percentage of dead cells was estimated based on the trypan blue exclusion test. The percentage of cells in the respective phases was estimated flow cytometrically based on their DNA content. Apoptotic cells (Ap) were recognized as the cells with fractional DNA content (sub-G1), as previously described;
Human histiocytic lymphoma U-937 cells were purchased from American Type Culture Collection (Manassas, Va., USA) and were maintained in RPMI 1640 medium supplemented with 10% fetal bovine serum, 100 U/ml of penicillin, 100 μg/ml streptomycin and 2 mM glutamine (all from Life Technologies, Grand Island, N.Y., USA). The suspension cultures were passaged by re-seeding the cells at a density of 1×10^5 cells/ml. The cells were studied during their exponential and asynchronous growth, generally within 72 hours of their re-seeding in medium with fresh serum, before reaching density of 8×10^5 cells/ml. The cultures were periodically tested for Mycoplasma infection by staining of cytocentrifuge preparations with the DNA fluorochrome 4,6-diamidino-2-phenylindole (DAPI; Molecular Probes, Eugene, Oreg., USA).
ONCONASE®, provided by Alfacell (Bloomfield, N.J., USA), was diluted in RPMI to the final concentrations as shown in the Results below and figure legends above. […]

[5] = system: p16^INK4a; assay: p16^INK4a expression by flow cytometry in U937 cells; conditions: U937, 170 nM, 72 hours
Experimental: Proportions of cells in different phases of the cycle were the same as in FIG. 12;
as §1, §2

[6] = system: cyclin E; assay: Cyclin E expression by multiparameter flow cytometry in U937 cells; conditions: U937 cells growing in presence of drug
Experimental: as §1, §2

B1: ONCONASE®: basic protein of 12,000 MW isolated from oocytes or early embryos of Rana pipiens, homologous to pancreatic RNase A (protein, UniProt P22069 1-104, looked up)
Protein P-30: QDWLTFQKKHITNTRDVDCDNIMSTNLFHCKDKNTFIYSRPEPVKAICKGIIASKNVLTTSEFYLSDCNVTSRPCKYKLKKSTNKFCVTCENQAPVHFVGVGSC
increase in p27^KIP1 [1]: Over four-fold
decrease of overall level of cyclin D3 ([2]; after 24 h): about 20%
reduction of overall level of cyclin D3 ([2]; after 48 hours): over 70%
expression of cyclin D3, Western blot [3]: decrease in expression of cyclin D3
cell proliferation suppressed ([4]; initial 72 hours of treatment): approximately 50%
cells dead ([4]; initial 72 hours, trypan blue): < 10%
increase in level of p16^INK4a [5]: over six-fold
expression of cyclin E [6]: not significantly changed
